Legend:
[1] = target: T1, Recombinant human Notch4 (human, UniProt Q99466 24-1447, limits assumed); assay: SPR, antibody captured by anti-human polyclonal Fc antibodies on CM5 chip, Notch4 as analyte at 300 nM; Table 4 SPR, Notch4 as analyte
T1 construct: also called Notch4 analyte; Notch4 (antigen)
T1 sequence: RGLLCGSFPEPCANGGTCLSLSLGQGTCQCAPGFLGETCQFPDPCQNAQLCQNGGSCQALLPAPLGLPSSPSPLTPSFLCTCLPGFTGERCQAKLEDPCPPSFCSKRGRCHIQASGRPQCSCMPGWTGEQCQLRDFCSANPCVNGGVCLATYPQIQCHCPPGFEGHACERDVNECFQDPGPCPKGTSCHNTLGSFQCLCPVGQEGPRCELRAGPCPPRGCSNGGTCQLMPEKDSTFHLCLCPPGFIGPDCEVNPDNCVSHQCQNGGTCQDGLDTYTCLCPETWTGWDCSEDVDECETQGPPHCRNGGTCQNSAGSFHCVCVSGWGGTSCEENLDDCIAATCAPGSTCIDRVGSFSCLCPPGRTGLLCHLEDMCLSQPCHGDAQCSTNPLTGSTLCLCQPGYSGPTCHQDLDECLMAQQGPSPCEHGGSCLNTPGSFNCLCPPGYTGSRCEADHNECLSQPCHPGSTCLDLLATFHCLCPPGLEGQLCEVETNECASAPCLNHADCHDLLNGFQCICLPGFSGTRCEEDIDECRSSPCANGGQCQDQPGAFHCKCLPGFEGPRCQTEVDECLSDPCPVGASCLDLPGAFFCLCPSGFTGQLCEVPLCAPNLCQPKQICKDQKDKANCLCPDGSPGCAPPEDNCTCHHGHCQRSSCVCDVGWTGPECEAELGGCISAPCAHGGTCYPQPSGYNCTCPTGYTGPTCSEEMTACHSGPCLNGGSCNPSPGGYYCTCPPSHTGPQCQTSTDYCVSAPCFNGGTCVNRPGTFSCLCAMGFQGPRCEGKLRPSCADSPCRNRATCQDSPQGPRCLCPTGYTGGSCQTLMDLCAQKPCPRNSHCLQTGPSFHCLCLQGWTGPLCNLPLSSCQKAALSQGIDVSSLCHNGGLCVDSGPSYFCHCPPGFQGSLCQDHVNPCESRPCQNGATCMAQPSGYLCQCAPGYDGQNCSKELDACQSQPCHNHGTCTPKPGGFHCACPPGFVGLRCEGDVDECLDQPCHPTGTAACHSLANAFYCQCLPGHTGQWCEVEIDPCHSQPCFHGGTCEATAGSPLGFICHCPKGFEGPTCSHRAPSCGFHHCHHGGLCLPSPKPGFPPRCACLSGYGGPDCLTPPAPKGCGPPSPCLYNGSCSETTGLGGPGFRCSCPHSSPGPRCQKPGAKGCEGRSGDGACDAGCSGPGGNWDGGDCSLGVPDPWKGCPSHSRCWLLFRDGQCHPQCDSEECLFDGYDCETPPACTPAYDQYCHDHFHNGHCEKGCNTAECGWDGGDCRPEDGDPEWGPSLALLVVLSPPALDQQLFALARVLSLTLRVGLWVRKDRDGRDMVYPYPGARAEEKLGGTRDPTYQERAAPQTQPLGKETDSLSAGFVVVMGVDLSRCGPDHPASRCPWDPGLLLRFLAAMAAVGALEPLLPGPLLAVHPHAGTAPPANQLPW
Protocol: (§1) Binding kinetics measurements. H07-Lib3 binding kinetics were determined using surface plasmon resonance (SPR). CM5 chips were coated with anti-human polyclonal Fc antibodies (Southern Biotech) to capture candidate antibody. Candidate antibody was diluted in HEPES-buffered saline with 0.005% surfactant P20 (HBS-P) and exposed to the surfaces for 20 minutes. […] To assess specificity, experiment was also run using Notch3 as an analyte at 300 nM.

[2] = target: T1, Recombinant human Notch4; assay: SPR, antibody captured by anti-human polyclonal Fc antibodies on CM5 chip, Notch4 as analyte at 300 nM
Protocol: as §1

[3] = target: T1, Recombinant human Notch4; assay: SPR, antibody captured by anti-human IgG Fc on HC30M chip, Notch4 as analyte
Protocol: Binding kinetics measurements. Following expression and purification, clones were characterized using surface plasmon resonance (SPR) to determine binding kinetics and epitope binding activity. HC30M chips (polycarboxylate hydrogel surfaces having medium charge density and 30 nm coating thickness) were coated with anti-human Fc antibodies (unlabeled goat anti-human IgG Fc from Southern Biotech) to capture the candidate antibodies. Candidate antibodies were diluted to 10 μg/mL in HEPES-buffered saline Tris-EDTA (HBSTE)) and exposed to the surfaces for 15 minutes. After stabilizing baseline using HBSTE, Notch4 analytes were injected sequentially from a lowest concentration of 0.41 nM to a highest concentration of 300 nM. (Notch4 was diluted in HBSTE+0.5 mg/mL bovine serum albumin (BSA) to obtain a series of 3-fold dilutions.) To assess specificity, experiments were also run using Notch2 as an analyte in a single injection at 100 nM in HBSTE+0.5 mg/mL.

[4] = target: T2, keyhole limpet hemocyanin; assay: polyreactivity assay, reactivity normalized to the highest value for each probe
T2 construct: Probe of the polyreactivity assay; also called KLH
Protocol: (§2) Polyreactivity assays. The non-specific reactivity of H07-Lib3 was evaluated towards cardiolipin, keyhole limpet hemocyanin (KLH), lipopolysaccharides (LPS), single-stranded DNA (ssDNA), double-stranded DNA (dsDNA), insulin, and bovine serum albumin (BSA). Additional therapeutic antibodies (bococizumab, efalizumab, gantenerumab, ibalizumab, lenzilumab, and panitumumab) were included in experiments for comparison. The reactivity percentage of each antibody was normalized to the highest reactivity value for each probe. Threshold for acceptable polyreactivity was set to 30% for all probes.

[5] = target: T3, insulin; assay: as above
T3 construct: Probe of the polyreactivity assay
Protocol: as §2

[6] = target: T4, bovine serum albumin (bovine, UniProt P02769 25-607); assay: as above
T4 construct: Probe of the polyreactivity assay; also called BSA
Protocol: as §2

T4 sequence (P02769 25-607 limits assumed): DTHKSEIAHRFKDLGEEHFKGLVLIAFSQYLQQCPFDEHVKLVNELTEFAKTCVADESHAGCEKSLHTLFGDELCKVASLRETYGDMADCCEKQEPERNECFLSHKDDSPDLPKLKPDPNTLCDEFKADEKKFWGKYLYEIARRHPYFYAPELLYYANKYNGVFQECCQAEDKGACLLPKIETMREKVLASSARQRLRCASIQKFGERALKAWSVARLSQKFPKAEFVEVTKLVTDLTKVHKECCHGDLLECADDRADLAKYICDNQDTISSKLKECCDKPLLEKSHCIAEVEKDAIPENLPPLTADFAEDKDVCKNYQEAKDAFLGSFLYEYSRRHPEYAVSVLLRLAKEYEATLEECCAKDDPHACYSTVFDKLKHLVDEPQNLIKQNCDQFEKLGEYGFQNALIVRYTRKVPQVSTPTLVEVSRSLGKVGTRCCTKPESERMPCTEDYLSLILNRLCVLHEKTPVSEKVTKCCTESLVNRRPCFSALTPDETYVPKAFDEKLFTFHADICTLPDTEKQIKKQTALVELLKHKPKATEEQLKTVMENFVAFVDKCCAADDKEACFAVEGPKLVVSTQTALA

- Kd [1]: 16.6 nM
- koff [2]: 0.00164 s⁻¹
- kon [2]: 98300 M⁻¹ s⁻¹
- Kd [3]: 1.4 nM
- normalized reactivity [4]: < 30%
- normalized reactivity [5]: < 30%
- normalized reactivity [6]: < 30%
B1: H07-Lib3-Pl1 (antibody, V domains shown)
VH: EVQLVESGGGLVQPGGSLRLSCAASGLPFSSYAMSWVRQAPGKGLELVASIGTAGDAYYPDSVKGRFTISRDNAKNSLYLQMNSLRAEDTAVYYCARVGPFWQGFAFDIWGQGTMVTVSS
VL: DIVMTQSPLSLPVTPGEPASISCRSSQSLLHSSGHNYLHWYLQKPGQSPQLLIYMTYNRASGVPDRFSGSGSGTDFTLKISRVEAEDVGVYYCLQTTHWPHTFGGGTKVEIK
notes: Tested as an antibody captured by anti-human Fc antibodies

Source: US20250243271A1 (ALCEA THERAPEUTICS, published 2025)
